The results in this text go back to publication PMC12170873, “The Spc105/Kre28 complex promotes mitotic error correction by outer kinetochore recruitment of Ipl1/Sli15” (The EMBO Journal, 2025).

Details in all cases: both partners purified
The target in assay [1] is T1, Spc105-Flag/Kre28 complex (S. cerevisiae, UniProt P53148 1-917; Q04431 1-385).
T1 construct: Spc105 (Knl1 homologue), S. cerevisiae; Kre28 (Zwint homologue), S. cerevisiae, wild type; the asterisk is not explained; A potential proteolysis product of full-length Spc105 is marked in the gels; also called Spc105/Kre28; K subcomplex; source: Sf9 insect cells (baculovirus pFAP10), purified on anti-Flag M2 beads; also as part of the co-expressed KMN network (KT1-5 and KT1-6); not shown: Flag, …
T1 sequence (looked up) 1: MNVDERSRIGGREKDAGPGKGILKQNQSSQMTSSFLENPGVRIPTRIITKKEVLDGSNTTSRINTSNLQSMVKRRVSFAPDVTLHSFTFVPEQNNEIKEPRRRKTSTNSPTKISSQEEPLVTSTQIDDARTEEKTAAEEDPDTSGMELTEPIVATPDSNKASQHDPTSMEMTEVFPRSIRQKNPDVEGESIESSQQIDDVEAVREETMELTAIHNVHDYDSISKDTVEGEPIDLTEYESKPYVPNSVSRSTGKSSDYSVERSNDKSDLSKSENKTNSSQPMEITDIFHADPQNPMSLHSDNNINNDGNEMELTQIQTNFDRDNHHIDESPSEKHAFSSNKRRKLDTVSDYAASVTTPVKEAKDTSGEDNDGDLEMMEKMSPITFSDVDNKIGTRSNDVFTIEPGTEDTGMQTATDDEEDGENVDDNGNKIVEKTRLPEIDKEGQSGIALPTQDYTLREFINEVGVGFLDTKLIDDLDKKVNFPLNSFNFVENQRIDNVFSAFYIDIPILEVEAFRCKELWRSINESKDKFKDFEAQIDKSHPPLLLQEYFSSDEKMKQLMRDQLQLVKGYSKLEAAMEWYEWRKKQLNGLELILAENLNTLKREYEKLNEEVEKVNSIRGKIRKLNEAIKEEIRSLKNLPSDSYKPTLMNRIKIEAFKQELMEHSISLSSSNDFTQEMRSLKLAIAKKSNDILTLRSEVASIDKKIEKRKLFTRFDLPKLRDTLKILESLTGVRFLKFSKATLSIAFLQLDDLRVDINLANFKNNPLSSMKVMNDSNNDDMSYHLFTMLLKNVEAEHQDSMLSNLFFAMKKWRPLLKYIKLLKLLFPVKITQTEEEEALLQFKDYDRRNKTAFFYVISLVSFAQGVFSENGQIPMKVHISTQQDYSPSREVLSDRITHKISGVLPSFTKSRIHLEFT
T1 sequence (looked up) 2: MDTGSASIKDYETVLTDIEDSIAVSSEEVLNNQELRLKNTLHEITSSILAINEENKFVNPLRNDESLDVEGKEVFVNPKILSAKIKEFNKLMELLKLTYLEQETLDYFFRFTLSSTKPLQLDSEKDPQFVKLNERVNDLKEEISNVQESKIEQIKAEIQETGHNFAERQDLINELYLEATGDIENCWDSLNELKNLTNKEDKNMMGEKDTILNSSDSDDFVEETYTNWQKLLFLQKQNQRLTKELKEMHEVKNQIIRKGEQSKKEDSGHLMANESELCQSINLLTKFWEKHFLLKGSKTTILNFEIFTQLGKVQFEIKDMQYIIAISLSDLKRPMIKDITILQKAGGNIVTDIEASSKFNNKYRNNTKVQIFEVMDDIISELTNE
The assay can be described thus: pull-down; KMN or its subcomplexes from Sf9 cells immobilised on anti-Flag M2 beads; 100 µl of 2 µM Ipl1/Sli15 added to ~20 µl beads; 4 °C, 6 h; 25 mM HEPES pH 7.4, 200 mM NaCl, 1 mM MgCl2, 2.5% glycerol, 0.01% Tween-20; eluted with 3xFlag peptide; Coomassie and anti-His blot; also done with prolonged incubation times (Fig. EV3A).

Assay [2] concerns the target T2, recombinant budding yeast KMN network (Spc105-Flag/Kre28^WT, Mtw1 complex, Ndc80 complex) (S. cerevisiae, UniProt P53148 1-917; Q04431 1-385; P39731 1-289; P40568 1-576; P47149 1-201; Q12143 …).
T2 construct: Spc105 (Knl1 homologue), S. cerevisiae; Kre28 (Zwint homologue), S. cerevisiae, wild type; Mtw1, S. cerevisiae; Dsn1, S. cerevisiae; Nnf1, S. cerevisiae; Nsl1, S. cerevisiae; Ndc80, S. cerevisiae; Nuf2, S. cerevisiae; Spc24, S. cerevisiae; Spc25, S. cerevisiae; also called wild-type Kre28 KMN network; not shown: Flag, C-terminal, kept; copies: + + + + + + + + +
The assay can be described thus: cross-linking; recombinant KMN and Ipl1/Sli15 mixed at equimolar amounts, BS3 (d0/d12), 35 °C, 30 min; cross-links identified by mass spectrometry (xQuest).

Assay [3] addresses T3, recombinant KMN network containing Kre28^ΔZwint (S. cerevisiae, UniProt P53148 1-917; Q04431 1-385; P39731 1-289; P40568 1-576; P47149 1-201; Q12143 …, ΔZwint (Zwint helix, residues 77–113)).
T3 construct: Spc105 (Knl1 homologue), S. cerevisiae; Mtw1, S. cerevisiae; Dsn1, S. cerevisiae; Nnf1, S. cerevisiae; Nsl1, S. cerevisiae; Ndc80, S. cerevisiae; Nuf2, S. cerevisiae; Spc24, S. cerevisiae; Spc25, S. cerevisiae; also called Kre28^ΔZwint KMN network; mutant KMN network; source: Sf9 insect cells, baculoviruses KT1-5 and KT1-6 mut, purified via Spc105-Flag on anti-Flag M2 beads; not shown: Flag, …
Nature of the assay: pull-down; KMN or its subcomplexes from Sf9 cells immobilised on anti-Flag M2 beads; 100 µl of 2 µM Ipl1/Sli15 added to ~20 µl beads; 4 °C, 6 h; 25 mM HEPES pH 7.4, 200 mM NaCl, 1 mM MgCl2, 2.5% glycerol, 0.01% Tween-20; eluted with 3xFlag peptide; Coomassie and anti-His blot; also done with prolonged incubation times (Fig. EV3A).

Where a chain is given by its changes, count along the chain named. Names may count otherwise.

B1: Ipl1/6xHis-Sli15 complex, dephosphorylated by λ phosphatase (complex, S. cerevisiae)
chain 1: MQRNSLVNIKLNANSPSKKTTTRPNTSRINKPWRISHSPQQRNPNSKIPSPVREKLNRLPVNNKKFLDMESSKIPSPIRKATSSKMIHENKKLPKFKSLSLDDFELGKKLGKGKFGKVYCVRHRSTGYICALKVMEKEEIIKYNLQKQFRREVEIQTSLNHPNLTKSYGYFHDEKRVYLLMEYLVNGEMYKLLRLHGPFNDILASDYIYQIANALDYMHKKNIIHRDIKPENILIGFNNVIKLTDFGWSIINPPENRRKTVCGTIDYLSPEMVESREYDHTIDAWALGVLAFELLTGAPPFEEEMKDTTYKRIAALDIKMPSNISQDAQDLILKLLKYDPKDRMRLGDVKMHPWILRNKPFWENKRL
chain 2: MDWAIKAARKKTQRKPGSTRSIIETLDDLNNLTTDAHSEINQRLYESSEWLRNNVYMNTLKYEDKKMEESLISPENTHNKMDVEFPKMKGEYELSNSQNDAAKDVTKTPRNGLHNDKSITPKSLRRKEVTEGMNRFSIHDTNKSPVEPLNSVKVDANESEKSSPWSPYKVEKVLRESSKTSESPINTKRFDNQTWAAKEEMENEPILQALKKAESVKVKPPPNSGIARSQRRSNMFVPLPNKDPLIIQHIPPTKSSGSIPKVRTVKESPIAFKKKSTINSPAIRAVENSDTAGSTKASSVFDRLSSIPTKSFENKISRGNVGHKYSSSSIDLTGSPMKKVSQKFKSINSTDTDMQEALRDIFSVKNKITKNNSPKGKNSRKSSIPRFDKTSLKLTTHKKLAIIAEQKKKSKHSSDVHKTGSRPHSISPTKISVDSSSPSKEVKNYYQSPVRGYLRPTKASISPNKNKNLTTSQTPHRLKIKEKTLRKLSPNIADISKPESRKSKNYRLTNLQLLPPAEAERDDLKKKFDKRLSGIMRSQQEHHRRKQEKQKRMSHLEQDLKKQTSFSNDYKDIRLKESLAPFDNHVRDTINKNTAFSTDNILATINTVDHREIIGNVTPKIASVNDSLPEINTDSEDEASVTLAAWAKSPYLQEQLIRQQDINPQTIFGPIPPLHTDEIFPNPRLNRLKPRQIVPKRS
modifications: dephosphorylated by λ phosphatase | dephosphorylated by λ phosphatase
notes: Ipl1 (Aurora B homologue), S. cerevisiae; Sli15 (INCENP homologue), S. cerevisiae; also called Lambda phosphatase-treated Ipl1/Sli15; source: E. coli BL21, purified (HisTrap, SEC), then treated with λ-Protein Phosphatase (NEB) at 30 °C for 30 min
Turning to B1, the binding result in assay [1] was “binds”.

B2: Ipl1/6xHis-Sli15 complex (wild type, untreated) (complex, S. cerevisiae)
chain 1: B1 chain 1
chain 2: B1 chain 2
notes: Ipl1 (Aurora B homologue), S. cerevisiae; Sli15 (INCENP homologue), S. cerevisiae; the full-length form was preferentially pulled down; also called Ipl1/Sli15; Ipl1/Sli15 complex; source: E. coli BL21, purified (HisTrap, SEC on Superdex 200)
As to B2, the binding result in assay [2], in assay [1] and in assay [3] was “binds” in each case.

B3: Ipl1/6xHis-Sli15^4E complex (complex, S. cerevisiae)
chain 1: B1 chain 1
chain 2: B1 chain 2 with R231E, R232E, L239E, K242E
notes: Ipl1 (Aurora B homologue), S. cerevisiae; Sli15 (INCENP homologue), S. cerevisiae, 4E mutant (plasmid pAD146 in pETDuett); also called Sli15^4E mutant; Sli15 R231E R232E L239E K242E; source: E. coli BL21, purified (HisTrap, SEC on Superdex 200)
Take B3: in assay [1], the binding result is reported as “binds”.
